Target: T1, Alexa Fluor 546 labelled PRDX1 (UniProt Q06830 1-199, Alexa Fluor 546 label (site not stated))
T1 sequence (looked up): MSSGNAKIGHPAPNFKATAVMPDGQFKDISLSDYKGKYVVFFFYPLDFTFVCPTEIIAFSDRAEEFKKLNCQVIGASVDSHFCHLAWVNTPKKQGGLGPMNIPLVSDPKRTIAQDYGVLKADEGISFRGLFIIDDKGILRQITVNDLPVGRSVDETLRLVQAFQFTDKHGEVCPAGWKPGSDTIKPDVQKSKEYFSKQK
Assay: other fluorescence titration

apparent KD (first of two): 140 nM | apparent KD (second of two): 610 nM
B1: RAD51 labelled with the QSY 35 quencher (natural protein, UniProt Q06609 1-339, looked up)
chain: MAMQMQLEANADTSVEEESFGPQPISRLEQCGINANDVKKLEEAGFHTVEAVAYAPKKELINIKGISEAKADKILAEAAKLVPMGFTTATEFHQRRSEIIQITTGSKELDKLLQGGIETGSITEMFGEFRTGKTQICHTLAVTCQLPIDRGGGEGKAMYIDTEGTFRPERLLAVAERYGLSGSDVLDNVAYARAFNTDHQTQLLYQASAMMVESRYALLIVDSATALYRTDYSGRGELSARQMHLARFLRMLLRLADEFGVAVVITNQVVAQVDGAAMFAADPKKPIGGNIIAHASTTRLYLRKGRGETRICKIYDSPCLPEAEAMFAINADGVGDAKD
modifications: QSY 35 quencher label (site not stated)

Reference: PMC9450138 (Redox Biology, 2022)
